The target of test [1] is T1, human FOLR1 (recombinant antigen) (human, UniProt P15328 25-234, limits assumed).
T1 construct: also called hFOLR1
Nature of the test: ELISA on hFOLR1. (In general: In an ELISA, binding on a coated surface is turned into a signal by an enzyme label.)

For test [2], the target named is T2, mouse FOLR1 (recombinant antigen) (mouse, UniProt P35846 25-232, limits assumed).
T2 construct: also called mFOLR1
Nature of the test: ELISA on mFOLR1.

In test [3] the target is T3, human DLL3 (recombinant antigen) (human, UniProt Q9NYJ7 27-492, limits assumed).
T3 construct: also called hDLL3
T3 sequence (looked up): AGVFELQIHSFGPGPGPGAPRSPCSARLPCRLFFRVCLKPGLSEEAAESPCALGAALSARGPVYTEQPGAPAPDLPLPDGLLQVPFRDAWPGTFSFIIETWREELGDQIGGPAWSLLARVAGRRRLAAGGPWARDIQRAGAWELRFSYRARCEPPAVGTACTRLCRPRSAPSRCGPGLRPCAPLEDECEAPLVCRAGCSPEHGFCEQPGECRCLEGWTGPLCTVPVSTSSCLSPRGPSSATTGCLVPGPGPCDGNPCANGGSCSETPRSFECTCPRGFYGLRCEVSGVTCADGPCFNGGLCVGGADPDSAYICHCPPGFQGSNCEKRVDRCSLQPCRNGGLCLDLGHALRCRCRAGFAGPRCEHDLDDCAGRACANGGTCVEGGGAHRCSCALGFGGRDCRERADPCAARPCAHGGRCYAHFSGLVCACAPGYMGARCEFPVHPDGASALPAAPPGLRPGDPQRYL
Put plainly: BLI (Octet), VHH-Fc captured on AHC biosensor, hDLL3 as analyte. For orientation: In BLI a coated tip is dipped into the sample, and binding shifts an interference pattern.

Test [4] has as its target T4, mouse DLL3 (recombinant antigen) (mouse, UniProt O88516 25-477, limits assumed).
T4 construct: also called mDLL3
T4 sequence (looked up): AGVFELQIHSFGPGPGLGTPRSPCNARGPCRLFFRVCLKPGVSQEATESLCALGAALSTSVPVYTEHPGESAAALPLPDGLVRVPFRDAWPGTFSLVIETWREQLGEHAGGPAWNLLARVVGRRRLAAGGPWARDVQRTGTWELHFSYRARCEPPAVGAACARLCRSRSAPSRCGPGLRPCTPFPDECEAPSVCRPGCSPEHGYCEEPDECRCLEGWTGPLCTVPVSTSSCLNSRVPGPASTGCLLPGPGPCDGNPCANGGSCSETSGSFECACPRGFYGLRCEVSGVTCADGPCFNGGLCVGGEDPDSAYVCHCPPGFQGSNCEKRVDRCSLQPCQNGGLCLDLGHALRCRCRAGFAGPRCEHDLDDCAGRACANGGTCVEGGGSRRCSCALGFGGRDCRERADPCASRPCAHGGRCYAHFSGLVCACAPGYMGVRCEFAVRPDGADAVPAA
Nature of the test: BLI (Octet), VHH-Fc captured on AHC biosensor, mDLL3 as analyte.

Test [5] concerns the target T5, FOLR1 on cells (OVCAR3, OV-90) (UniProt P15328 25-234).
T5 construct: whole, on cells; also called FOLR1-positive OVCAR3 cells; FOLR1 expressing OV-90 cells
Nature of the test: flow cytometry on FOLR1 expressing OV-90 cells, Geomeans RL1-H against Conc (nM) [top panel].

Test [6] addresses T6, DLL3 on cells (SHP-77, NCI-H82, HEK-DLL3) (UniProt Q9NYJ7 27-618).
T6 construct: whole, on cells; also called DLL3-positive cell lines
T6 sequence (looked up): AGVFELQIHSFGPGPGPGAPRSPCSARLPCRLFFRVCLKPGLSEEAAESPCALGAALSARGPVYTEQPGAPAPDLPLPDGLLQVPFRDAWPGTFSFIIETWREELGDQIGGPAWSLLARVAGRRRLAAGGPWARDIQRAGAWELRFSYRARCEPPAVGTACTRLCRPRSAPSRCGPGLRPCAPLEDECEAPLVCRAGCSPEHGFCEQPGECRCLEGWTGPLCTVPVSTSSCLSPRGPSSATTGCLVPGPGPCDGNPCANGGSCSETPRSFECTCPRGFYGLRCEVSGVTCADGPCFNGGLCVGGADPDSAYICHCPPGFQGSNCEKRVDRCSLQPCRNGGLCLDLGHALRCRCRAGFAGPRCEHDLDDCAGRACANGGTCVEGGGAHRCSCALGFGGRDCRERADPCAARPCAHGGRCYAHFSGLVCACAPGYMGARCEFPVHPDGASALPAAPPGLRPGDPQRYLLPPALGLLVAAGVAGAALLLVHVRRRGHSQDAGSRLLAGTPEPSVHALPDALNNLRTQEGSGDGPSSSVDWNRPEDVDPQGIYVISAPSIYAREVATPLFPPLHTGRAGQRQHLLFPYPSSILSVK
Put plainly: flow cytometry, SHP-77 cells.

Test [7] deals with T6, DLL3 on cells (SHP-77, NCI-H82, …). Put plainly: flow cytometry, HEK-DLL3 cells.
Test [8] addresses T7, human DLL3.FLAG (Adipogen #AG-40B-0151, amino acid 27-466) (human, UniProt Q9NYJ7 27-466).
T7 construct: range 27-466; Carries a FLAG tag
T7 sequence (looked up): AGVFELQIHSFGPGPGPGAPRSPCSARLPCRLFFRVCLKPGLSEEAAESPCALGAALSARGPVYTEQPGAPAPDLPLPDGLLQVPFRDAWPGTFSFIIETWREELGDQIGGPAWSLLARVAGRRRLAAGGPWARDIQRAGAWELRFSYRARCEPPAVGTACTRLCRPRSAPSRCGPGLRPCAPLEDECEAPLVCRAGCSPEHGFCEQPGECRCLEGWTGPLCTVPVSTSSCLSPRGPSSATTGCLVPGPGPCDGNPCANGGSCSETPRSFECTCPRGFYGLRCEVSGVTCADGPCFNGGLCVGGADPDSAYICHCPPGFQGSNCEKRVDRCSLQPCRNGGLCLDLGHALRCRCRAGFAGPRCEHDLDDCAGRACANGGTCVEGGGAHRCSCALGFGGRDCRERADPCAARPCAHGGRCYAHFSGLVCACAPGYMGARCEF
Nature of the test: ELISA on coated hDLL3-Flag, A450nm against nM antibody.

Test [9] deals with T6, DLL3 on cells (SHP-77, NCI-H82, …). Nature of the test: flow cytometry on SHP-77 cells (DLL3-positive), MFI against nM antibody. Background: In flow cytometry, cells or beads pass a laser one at a time.
Test [10] deals with T5, FOLR1 on cells (OVCAR3, OV-90). Nature of the test: flow cytometry on FOLR1 expressing OV-90 cells, Geomeans RL1-H against Conc (nM) [bottom panel].

T5 sequence (P15328 25-234): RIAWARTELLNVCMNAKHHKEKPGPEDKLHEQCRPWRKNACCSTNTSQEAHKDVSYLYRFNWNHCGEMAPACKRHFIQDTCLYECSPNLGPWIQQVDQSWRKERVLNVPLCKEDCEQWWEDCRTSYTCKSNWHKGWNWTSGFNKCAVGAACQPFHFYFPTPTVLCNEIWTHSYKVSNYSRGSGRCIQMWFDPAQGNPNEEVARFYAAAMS
T1 sequence (P15328 25-234 limits assumed): as the sequence (P15328 25-234) above
T2 sequence (P35846 25-232 limits assumed): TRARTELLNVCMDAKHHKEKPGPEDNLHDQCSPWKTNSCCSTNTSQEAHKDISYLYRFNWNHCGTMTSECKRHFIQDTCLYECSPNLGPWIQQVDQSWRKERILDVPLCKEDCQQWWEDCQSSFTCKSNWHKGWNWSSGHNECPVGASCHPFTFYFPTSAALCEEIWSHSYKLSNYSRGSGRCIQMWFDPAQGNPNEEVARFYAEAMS

B1: DLL3 VHH (VHH-Fc control) (Fc fusion, not shown: a dimerising Fc or GST)
chain: EVQLVESGGGEVQPGGSLRLSCAASGSIFSINAMGWYRQAPGKQRELVAGFTGDTNTIYAESVKGRFTISRDNAKNTVYLQMSSLRAEDTAVYYCAADVQLFSRDYEFYWGQGTLVTVKP
The term Kd denotes the constant that tells how readily two partners part at equilibrium. For orientation: koff means a measure of how fast the partners let go of each other. Usually kon stands for the rate constant with which the complex forms. For the molecule B1, the binding result in test [1] is on record as “no binding”; in [2], “no binding”; in test [5] it was “no binding (tested: 200 nM)”. Further, the Kd in test [3] amounted to 2.29 nM. The koff in test [3] is 0.000379 s⁻¹; in test [4], 0.000267 s⁻¹. Moreover, the kon was 166000 M⁻¹ s⁻¹ in test [3] and 215000 M⁻¹ s⁻¹ in [4].

B2: Rovalpituzumab (Creative Biolabs #TAB-216CL) (antibody, V domains shown)
VH: QVQLVQSGAEVKKPGASVKVSCKASGYTFTNYGMNWVRQAPGQGLEWMGWINTYTGEPTYADDFKGRVTMTTDTSTSTAYMELRSLRSDDTAVYYCARIGDSSPSDYWGQGTLVTVSS
VL: EIVMTQSPATLSVSPGERATLSCKASQSVSNDVVWYQQKPGQAPRLLIYYASNRYTGIPARFSGSGSGTEFTLTISSLQSEDFAVYYCQQDYTSPWTFGQGTKLEIK
One may read the EC50 as the concentration giving half of the maximal effect. Broadly, the EC50 (read off the curve) is the concentration needed to bring the measured effect to its halfway point. On to B2, for which the EC50 in [6] was 0.11 nM; in [7], 0.06 nM. In addition, the “EC50 (read off the curve)” value was about 0.09 nM in [8] and about 0.1 nM in test [9].

B3: bispecific anti-h/mFOLR1/h/mDLL3 (GGS)3 tetramer, p-SCN-Bn-DOTA conjugate (bispecific antibody)
chain (part 1 of 2): QVQLVESGGGLVQPGGSLRLSCAASGFTVSNSVMAWYRQTPGNEREFVAIINSIGITNYADSVKGRFTISRDNSKNTLYLQMNSLRAEDTAVYVCNRNFDRIYWGQGTLVTVSSGGSGGSGGSEVQLVESGGGEVQPGGSLRLSCAASGSIFSINAMGWYRQAPGKQRELVAGFTGDTNTIYAESVKGRFTISRDNAKNTVYLQMSSLRAEDTAVYYCAADVQLFSRDYEFYWGQGTLVTVKP
chain (part 2 of 2): not shown
modifications: conjugated with p-SCN-Bn-DOTA
notes: Chelator conjugate of m63; not shown: hinge
In the case of B3, the “EC50 (read off the curve)” value in test [10] is about 3 nM.

The values above are taken from patent US20260137822A1 (ABDERA THERAPEUTICS, published 2026).
